Source: patent US11472875

Experiments:
[1] = molecular target: anti-EGFR activatable antibodies comprising substrates 2001, 2006-2010 and 2012
CM1-CM2 substrate 2003 = molecular target: T1, CM1-CM2 substrate 2003
T1 chain: ISSGLLSGRSANPRG

CM1-CM2 substrate 2005 = molecular target: T2, CM1-CM2 substrate 2005
T2 chain: AVGLLAPPSGRSANPRG

B1: human matriptase (protein)
chain: GSDEKDCDCGLRSFTRQARVVGGTDADEGEWPWQVSLHALGQGHICGASLISPNWLVSAAHCYIDDRGFRYSDPTQWTAFLGLHDQSQRSAPGVQERRLKRIISHPFFNDFTFDYDIALLELEKPAEYSSMVRPICLPDASHVFPAGKAIWVTGWGHTQYGGTGALILQKGEIRVINQTTCENLLPQQITPRMMCVGFLSGGVDSCQGDSGGPLSSVEADGRIFQAGVVSWGDGCAQRNKPGVYTRLPLFRDWIKENTGV
For B1, the kcat/Km [1] was “a range of kcat/Km values ranging from 6E+02 to 2E+04”, the “cleavage kinetics, fold increase as compared to substrate 2001” value (CM1-CM2 substrate 2003) was “approximately a 50-fold increase” and the “cleavage kinetics, fold increase as compared to substrate 1004/LP′/0001” value (CM1-CM2 substrate 2005) was “approximately a 50-fold increase”.
